Data: publication PMC2191386 (The Journal of Experimental Medicine, 1994)

Molecular target: T1, LFA-3, purified (human (endogenous in JY), UniProt P19256 29-250)
T1 sequence (looked up): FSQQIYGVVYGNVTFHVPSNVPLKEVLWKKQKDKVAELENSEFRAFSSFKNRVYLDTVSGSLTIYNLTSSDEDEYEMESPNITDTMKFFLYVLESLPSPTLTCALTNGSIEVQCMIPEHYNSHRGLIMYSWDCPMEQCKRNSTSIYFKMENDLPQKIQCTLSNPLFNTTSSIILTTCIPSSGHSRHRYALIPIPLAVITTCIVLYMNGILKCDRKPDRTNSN
Assay: cell adhesion to purified protein

B1: CD2 on SKW3 cells (receptor, human (endogenous in SKW3), UniProt P06729 25-351, looked up)
chain: KEITNALETWGALGQDINLDIPSFQMSDDIDDIKWEKTSDKKKIAQFRKEKETFKEKDTYKLFKNGTLKIKHLKTDDQDIYKVSIYDTKGKNVLEKIFDLKIQERVSKPKISWTCINTTLTCEVMNGTDPELNLYQDGKHLKLSQRVITHKWTTSLSAKFKCTAGNKVSKESSVEPVSCPEKGLDIYLIIGICGGGSLLMVFVALLVFYITKRKKQRSRRNDEELETRAHRVATEERGRKPHQIPASTPQNPATSQHPPPPPGHRSQAPSHRPPPPGHRVQHQPQKRPPAPSGTQVHQQKGPPLPRPRVQPKPPHGAAENSLSPSSN
fold increase of cell binding on PMA stimulation: 3 fold
